Self-cleavage data for 167 variants are collected here from the RNAGym collection of RNA variant scans (doi:10.7554/elife.80360).

B1: CPEB3 Ribozyme (parent)
chain: GGGGGCCACAGCAGAAGCGUUCACGUCGCGGCCCCUGUCAGAUUCUGGUGAAUCUGCGAAUUCUGCUGU

In the data set the parent is B1. Description: self-cleavage, relative activity (ratio to wild type); higher = more cleavage; co-transcriptional.
For G47U G65A, the self-cleavage is 0.953.
For G47U G65U, the self-cleavage stood at 0.946.
Consider G47U G56U, for which the self-cleavage was 0.983.
With C45U G65A, the self-cleavage turned out to be 0.929.
The value for G47U C63A was 0.944.
On to G47U C63G, for which the self-cleavage came out at 0.905.
For the variant G47U C63U, the self-cleavage is 1.01.
The result for G47C A60C reads 0.366.
Regarding G47C A60G, the self-cleavage was 1.01.
With G47U A59U, the self-cleavage stood at 0.833.
The value for C45A U55C was 0.516.
The value for G47U U53A was 1.01; that for C45G G65C was 0.62; that for U46G U67C was 0.979.
The value for U46G G58A was 0.957; that for U46G G58C was 0.936.
G47C G56A: the self-cleavage is 1.
The value for U44C G68U was 0.987; that for G47A A52U was 1.01; that for G47A A52C was 0.993.
The value for U44G A52C was 0.976.
The result for U44C C45G reads 1; that for U46C A59C, 0.744.
Take C45U U69G: the self-cleavage stood at 1.05.
The result for U44G C57G reads 0.335; that for U44G C57U, 0.23; that for U44G C57A, 0.327.
The result for G48U C66G reads 0.937; that for U44G U53G, 0.755; that for U49A G50U, 0.986.
The value for U46A A51G was 0.946; that for U46C U53A was 0.933.
Take U46C U53C: the self-cleavage is 0.878.
As for U44G U55A, the self-cleavage worked out at 0.432.
The value for U44G U55G was 0.574.
The value for U46A U55G was 0.916; that for U46C G65U was 0.629; that for U44G C66A was 0.733.
The value for U46A A52G was 1.03; that for U46A A52U was 0.981.
Consider C45A G65A, for which the self-cleavage was found to be 0.814.
G47U U55C: the self-cleavage turned out to be 0.979.
C45A C63U: the self-cleavage came to 1.02.
C45A C63G: the self-cleavage was found to be 0.813.
On to U44G C63G, for which the self-cleavage amounted to 0.588.
The value for G48C G58U was 0.969.
For the variant G48A A60G, the self-cleavage was 0.916.
The result for G48A U69G reads 1.07.
In the case of C45U U53G, the self-cleavage amounted to 0.9.
Take C45U U53A: the self-cleavage was determined as 0.936.
The value for G48C U61A was 0.962.
The value for G47U U61C was 0.937.
For the variant C45U G47C, the self-cleavage was 0.998.
The value for G48C G68C was 0.992; that for G48C G68U was 0.985.
The value for C45A G56A was 0.848; that for G47A G56C was 0.918.
Regarding U46C A52U, the self-cleavage worked out at 0.974.
As to G48C A51U, the self-cleavage was 0.976.
Turning to G48C A51C, the self-cleavage came to 1.02.
The result for U44G G50A reads 1; that for G47U G48U, 1.01; that for G47U G48A, 1.03.
The result for U46A G56C reads 0.858; that for U46A G56U, 0.941.
The result for G48C U64G reads 0.974.
Consider G48C U64A, for which the self-cleavage came to 0.864.
The value for C45U G50U was 0.991.
Take G48A U62A: the self-cleavage was 0.973.
The result for C45G G50U reads 0.961; that for U46C U49G, 1.01.
Turning to U46C G47U, the self-cleavage was 1.02.
The value for U46G C63G was 0.825.
For the variant U46A G47C, the self-cleavage was 1.04.
The result for U44C G47C reads 0.963; that for G47A U62G, 0.959.
Turning to U46G A59C, the self-cleavage was found to be 0.828.
The value for C45U U61G was 0.897; that for G47U G50U was 1.04; that for G48U G58C was 0.999.
The result for G48U U55A reads 1; that for G47A A59C, 0.769; that for G47A A59G, 0.988.
As for C45U U64A, the self-cleavage stood at 0.88.
On to C45U U64C, for which the self-cleavage was 0.905.
The result for U44C U55G reads 0.372; that for G47C C57G, 0.299; that for G47C C54A, 0.949.
The result for C45U C66U reads 0.984.
As to U44C U61A, the self-cleavage turned out to be 0.801.
Turning to U44C U61G, the self-cleavage worked out at 0.49.
G47C U49A: the self-cleavage was 1.
The value for G48C C63G was 0.829; that for C45U C57U was 0.317; that for U49A A51G was 1.05.
The value for U49A A51C was 0.633; that for C45G C63A was 0.732; that for C45G C63G was 0.798.
The result for G47A A51C reads 0.983; that for G48U U61G, 0.958; that for U46C A51C, 0.99.
C45G G47C: the self-cleavage was 1.
The result for C45G G47U reads 1.04; that for G47U U67A, 0.99.
As for G47U U67G, the self-cleavage is 1.01.
The value for G47A U64G was 0.959.
The value for U46A U49C was 0.666; that for U46A U49G was 0.922; that for G47C U67A was 1.04.
The result for C45G G68U reads 0.979; that for C45A U53G, 0.863; that for C45A U53C, 0.804.
Take U46A U64C: the self-cleavage worked out at 0.98.
The result for U46C C66U reads 0.959; that for U46A A59U, 0.842; that for C45U U49G, 1.01.
As to C45U U49C, the self-cleavage was determined as 0.986.
The result for G47C U61C reads 0.87; that for G47C U55A, 1.03.
The result for G47C U55G reads 0.931.
For G48C C66U, the self-cleavage was found to be 0.998.
The result for G48A C57A reads 0.329; that for C45U U46G, 0.952; that for C45U U46C, 0.975.
For C45U U46A, the self-cleavage came out at 0.999.
The result for C45U C54G reads 0.785; that for C45U C54U, 1.01.
The result for U44C A60C reads 0.378.
The result for U46C G58U reads 0.933.
On to U46C G58C, for which the self-cleavage is 0.976.
The value for C45G U62A was 0.939; that for C45A U61C was 0.697.
The value for C45A A60G was 0.862; that for C45A A60U was 0.424.
The result for C45A A60C reads 0.476; that for C45A C66U, 0.919; that for C45A C66A, 0.744.
On to G48A U55A, for which the self-cleavage was 0.99.
U44C G50A: the self-cleavage came to 0.939.
The result for G47A U55A reads 1.
Turning to U46A U67A, the self-cleavage was determined as 0.972.
The result for U46A A60U reads 0.556; that for C45U C63G, 0.816.
The result for C45U C63U reads 1.
Regarding G48C A60G, the self-cleavage worked out at 0.948.
With C45G U64A, the self-cleavage was determined as 0.908.
The value for G47A C66A was 0.916.
The value for G48A G58C was 0.98; that for G48A G58U was 0.987.
Turning to U46G G50C, the self-cleavage is 0.941.
With U44C G56A, the self-cleavage turned out to be 0.7.
The result for G47A A60C reads 0.397; that for G47A A60G, 0.944; that for G47A U49C, 0.975.
In the case of G47A U49A, the self-cleavage came to 1.01.
With U46A C63G, the self-cleavage was 0.838.
Consider U46A C63A, for which the self-cleavage came to 0.908.
On to G48U U62A, for which the self-cleavage amounted to 0.922.
The value for G48U U62G was 0.927; that for C45A G58U was 0.988.
The result for U44G C54A reads 0.596.
Take G48U G65A: the self-cleavage is 0.961.
Take G48C U55G: the self-cleavage was 0.864.
In the case of G48C U55C, the self-cleavage amounted to 0.963.
Consider G47A G50A, for which the self-cleavage came out at 0.959.
Consider G47A G50C, for which the self-cleavage came to 1.
The result for U49A reads 1.
